Reference: US20190314417A1, “IMMUNOSUPPRESSIVE MESENCHYMAL CELLS AND METHODS FOR FORMING SAME” (The Trustees of Columbia University In The City of New York, priority 2016, published 2019)
Counter-ions that a name gives are not always drawn.

Tests used:
Format in all cases: cell-based, human
GLUT1 = assay: Hypoxia mimetic titration: GLUT1 in MSCs; conditions: different concentrations, FIG. 24
Procedure: Studies were carried out to determine the effect of hypoxia mimicking agents CoCl2 and DFO on MSCs (FIG. 24).

[1] = test system: CD4+ and CD8+ T-cell division; assay: Lactic acid titration: T-cell division in response to Concanavalin A; conditions: ConA 5 μg/mL, Day 3
Procedure: PBMCs were thawed, as previously described, and stained in HEPES buffered saline at 37° C. for 30 minutes with pHrodo® Red AM (Thermo Fisher) as per manufacturer's instructions (1000× dilution of dye). […] Cells were resuspended in these new media and incubated at 37° C. for 30 minutes. Immediately prior to each flow cytometry reading, each sample was diluted 1:9 with BD Stain Buffer and mixed well. This neutralized external pH and diluted media components without permitting time for intracellular lactate to be exported. […] Cells were plated in 96-well U-bottom plates at 200 000 cells per well. ConA was added to be 5 μg/mL, and PBMCs were analyzed by flow cytometry on Day 3.

T-cells = assay: Lactic acid titration: intracellular pH and scatter of T-cells (pHrodo Red AM); conditions: fresh complete AIM-V media, 30 minutes
IDO [2] = assay: Onset kinetics of IDO expression in MSCs exposed to IFN-γ; conditions: 10 ng/mL IFN-γ
Procedure: (§1) Titration studies were carried out to determine whether IFN-γ at different concentrations or for different time periods had differential effects on MSC expression of IDO and/or PD-L1 (FIGS. 22 & 23). […] Thus, the IFN-γ dose could be used in a range of 0.1 ng/mL to 100 ng/mL for future animal and human studies, while still reproducing the same beneficial phenotype, with the lower end of that range more likely to mimic physiologic conditions in humans. […] Therefore, priming of MSCs may be carried out for less than 48 hours to achieve biological effects.

IDO [3] = assay: IFN-γ titration: IDO expression in MSCs by flow cytometry; conditions: 48 hours of exposure
Procedure: as §1

PD-L1 = assay: Onset kinetics of PD-L1 expression in MSCs exposed to IFN-γ; conditions: 10 ng/mL IFN-γ
Procedure: as §1

Molecule: [Cl][Co][Cl] [CoCl2, cobalt chloride]
- GLUT1 upregulation in MSCs (GLUT1): able to upregulate GLUT 1

Molecule: CC(=O)N(O)CCCCCNC(=O)CCC(=O)N(O)CCCCCNC(=O)CCC(=O)N(O)CCCCCN [DFO, deferoxamine mesylate/desferrioxamine]
- GLUT1 upregulation in MSCs (GLUT1): able to upregulate GLUT 1

Molecule: C[C@H](O)C(=O)O [lactic acid, L-lactic acid]
- T-cell division at lactate 15 mM ([1]; lactate concentration of 15 mM): almost completely eliminated
- T-cell division, % of the maximum rate ([1]; lactic acid concentration not given): 30-45%
- extracellular lactic acid level at which drop in T-cell pHi started to become pronounced (T-cells): 15 mM

B1: IFN-γ: pro-inflammatory cytokine (Peprotech) used to prime MSCs (protein, UniProt P01579 24-161, looked up)
Interferon gamma: QDPYVKEAENLKKYFNAGHSDVADNGTLFLGILKNWKEESDRKIMQSQIVSFYFKLFKNFKDDQSIQKSVETIKEDMNVKFFNSNKKKRDDFEKLTNYSVTDLNVQRKAIHELIQVMAELSPAAKTGKRKRSQMLFRG
- exposure time after which IDO is already upregulated (IDO [2]): 6 h
- exposure time required for maximum IDO expression (IDO [2]): 48 h
- IDO induction at 0.1 ng/mL (IDO [3]; 0.1 ng/mL): significant induction
- IFN-γ concentration required for maximum IDO induction (IDO [3]): at least 1 ng/mL
- exposure time after which PD-L1 is already upregulated (PD-L1): 6 h
- exposure time required for maximum PD-L1 expression (PD-L1): 48 h
